We go through five molecules from patent US7053177B1, “Random peptides that bind to gastro-intestinal tract (GIT) transport receptors and related methods” (Cytogen Corporation, priority 1997, dated 2006).

Data set [1] deals with BSA (Bos taurus, UniProt P02769). In words: Receptor ELISA of phage on BSA (background control protein). It is filed as binding. The settings on record: Table 4; phage panned on hPEPT1. The protocol: (§1) 96 well plates were coated overnight with GIT receptor, BSA and, optionally, IDE (insulin degrading enzyme, an irrelevant His-fusion protein)or hTF. The plates were blocked for one hour with 0.5% BSA-PBS. After clarification, the amplified phage were diluted 1:100 in 1% BSA plus 0.05% Tween 20 in PBS and added to the plates. Following incubation of the plates on a rotator for 1 to 2 hours, the plates were washed 5 times with 1% BSA plus 0.05% Tween 20 in PBS. Dilute anti-M13-HRP conjugate (anti-M13 antibody linked to horse radish peroxidase (HRP)) was added to all the wells and the plate was incubated for one hour on a rotator. After the plates were washed 5 times, as described above, TMB substrate was added to the wells. The plates were read at 650 nm absorbance.
For orientation: ELISA stands for enzyme-linked immunosorbent assay.

Data set [2] deals with rat gastro-intestinal tract (closed loop). In words: Transport of preselected phage libraries in rat closed loop, detected by oligonucleotide hybridization/autoradiography. The conditions noted are these: hPEPT1 pool; in words. The protocol: Four preselected phage libraries, GI-D2H, GI-hSI, GI-HPT1 and GI-hPEPT1, were constructed by pooling phage previously selected by screening random phage display libraries D38 and DC43 using the HPT1, HPEPT1, D2H and hSI receptor or binding sites located in the GIT.
In particular, phages selected in vitro to each receptor or binding site located in the GIT were amplified in E. coli, PEG-precipitated, resuspended in TBS and the titer of each phage sample was determined by plaquing in E. coli as described above. […] Using the in situ loop model described above, 0.5 ml of preselected phage library solution was injected into the tied-off portion of the duodenum/jejunum. Blood was collected into heparinized tubes from the portal vein at 0, 15, 30, 45 and 60 minutes. A blood sample was taken from the systemic circulation at the end of the experiment. Similarly, the portion of the duodenum/jejunum used for phage injection was taken at the end of the experiment.
Thirty microliters of the collected portal blood (neat and 10^−2, 10^−1, 10^−6 dilutions) was added to 30 μl E. coli K91Kan cells (overnight culture) and incubated at 37° C. for 10 min. Subsequently, 3 ml of top agarose was added and the samples were plated for plaques. One hundred microliters of the collected portal blood was added to 100 μl of E. coli K91Kan. Five milliliters of LB medium was then added and the samples were incubated at 37° C. overnight in a rotating microbial incubator. The E. coli was removed by centrifugation and the amplified phage supernatant samples were either titered directly or were PEG-precipitated, resuspended in TBS and titered. Following titration of the amplified phage, samples containing phage from each set of animals were combined, adjusting the titer of each sample to the same titer, and were plated for plaques on LB agar lates (22 cm^2 square plates). Either 12,000 or 24,000 phage were lated for plaques.
Thirty microliters of the collected systemic blood (neat and 10^−2, 10^−1, 10^−6 dilutions) was added to E. coli K91Kan cells, incubated at 37° C. for 10 min. Three ml of top agarose was then added and the samples were plated for plaques. One hundred microliters of the collected systemic blood was added to 100 μl of E. coli K91Kan, incubated at 37° C. for 10 min. Five milliliters of LB medium was then added and the samples were incubated at 37° C. overnight in a rotating microbial incubator. The E. coli was removed by centrifugation and the amplified phage supernatant samples were either titered directly or were PEG-precipitated, resuspended in TBS and titered. Following titration of the amplified phage, samples containing phage from each set of animals were combined, adjusting the titer of each sample to the same titer, and were plated for plaques on LB agar plates (22 cm^2 square plates). Either 12,000 or 24,000 phage were plated for plaques.
The intestinal tissue portion used in each closed loop was excised. […] Alternatively, the tissue (in PBS supplemented with protease inhibitors) was homogenized in an Ultra Thorex homogenizer, washed 3 times in PBS containing protease inhibitors and resuspended in PBS containing protease inhibitors (Int-G samples). In each case, serial dilutions (neat and 10^−2, 10^−4, 10^−6 dilutions) of the tissue homogenate was titered in E. coli.
The phage amplified from the portal blood, systemic blood and intestinal tissue was plated for plaques. […] The filters were air-dried, and the DNA was cross-linked to the filter (UV crosslinking: 2 min, high setting). The filters were incubated in pre-hybridization buffer (6×SSC, 5× Denhardt's solution, 0.1% SDS, […] yeast tRNA) at 40° C.–45° C. for at least 60 min.
Synthetic oligonucleotides, (22-mers), complimentary to regions coding for the receptor or binding sites used to create the preselected phage library, were synthesized (see Table 14 below).

Data set [3] concerns the target T1, hPEPT1 (Homo sapiens, UniProt P46059).
T1 construct: 391–571; made in house
T1 sequence (P46059 391-571): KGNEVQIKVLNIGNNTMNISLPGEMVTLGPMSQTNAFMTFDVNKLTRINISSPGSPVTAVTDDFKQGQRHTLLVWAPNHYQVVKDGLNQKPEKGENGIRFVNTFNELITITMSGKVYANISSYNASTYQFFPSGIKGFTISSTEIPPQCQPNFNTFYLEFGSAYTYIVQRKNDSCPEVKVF
In words: Receptor ELISA of phage on recombinant hPEPT1. It is filed as binding. The settings on record: Table 4. The protocol:
as §1, with “Dilute anti-M13-HRP conjugate (anti-M13 antibody linked to horse radish peroxidase (HRP)) was added to all the wells and the plate was incubated for one hour on a rotator.” left out

Data set [4] has as its system fixed Caco-2 cells. In words: ELISA of GST fusion proteins on fixed Caco-2 cells. The data set is classed as binding. The settings on record: in words. The protocol: Fixed Caco-2, C2BBe1, and A431 cell plates were prepared by growing cells on tissue culture treated microtiter plates. When cells were confluent, plates were fixed with 10% formaldehyde, washed twice with PBS and stored with 0.5% BSA-PBS at −20° C. […] The standard ELISA procedure was followed at this point.
The standard ELISA procedure was modified as follows. GST proteins were diluted to an appropriate concentration in PBS containing 1% BSA and 0.05% Tween20 (1% BPT), titered and incubated one hour at room temperature. Following five washes an anti-GST monoclonal antibody was added (Sigma, St. Louis Clone GST-2 diluted 1:10,000 in 1% BPT) and incubated one hour. After five more washes goat anti-mouse IgG2b-HRP was added (Southern Biotechnology Associates Inc., Birmingham, Ala., diluted 1:4000 in 1% BPT) and incubated one hour. After five washes plates were developed with TMB peroxidase substrate (Kirkegard and Perry, Gaithersburg, Md.). All data is presented with background binding subtracted.

The test system of data set [5] is P100 membrane fraction of Caco-2 cells. In words: GST-PAX2 peptides: relative binding to P100 fractions (ratio to GST-HAX42). The conditions noted are these: GST-peptide 20 μg/ml; binding to plastic subtracted; GST-HAX42 = 1.00. As to the method: The peptides and proteins were analyzed by a dansylated peptide ELISA method in which 96 well plates were coated overnight at 4° C. with 100 μl/well coating protein (normally 100 μg/ml P100 membrane fraction) in 0.05M carbonate buffer pH9.6. Nonspecific binding was blocked using 200 μl/well, 2% Marvel/PBS for 2 hours at 37° C. prior to incubation with dansylated peptides. The plates were washed three times with PBS/0.05% Tween 20 and after each subsequent incubation step. […] A buffer blank control was included to ensure that background binding to plastic was not due to the antibodies used in the assay system. […] The plates were then incubated with an anti-mouse λ-HRP conjugated antibody (Southern Biotech 1060-05) at a 1:10,000 dilution in blocking solution, 100 μl/well for 1 hour at room temperature. Plates were developed using 75 μl/well Bionostics TMB substrate and incubated for approximately 10 minutes. The developing reaction was stopped using Bionostics Red Stop solution (25 μl/well), and the optical density of the plates was read at 650 nm.
After subtraction of the GST-peptide binding to plastic from P100 binding values, the binding of GST-PAX2 peptides were represented as a ratio of GST-HAX42 binding to P100, which was given the arbitrary value of 1.00. The following ratios were determined from binding to P100 of GST-peptides at a peptide concentration of 20 μg/ml. […]

Data set [6] relates to fixed C2BBe1 cells. In words: Competition ELISA: dansylated peptides versus GST fusion proteins on fixed C2BBe1 cells. The conditions noted are these: 5 μg/ml concentration used in competition assays. The data set is classed as binding. The protocol:
The standard ELISA procedure was modified as follows. GST fusion proteins and peptides were diluted to an appropriate concentration in PBS containing 1% BSA and 0.05% Tween 20. Peptides were titered, a constant concentration of diluted GST protein was added to titered peptides and the mixture was incubated one hour at room temperature. Following five washes, an anti-GST monoclonal antibody was added (Sigma, St. Louis Clone GST-2 diluted 1:10,000 in 1% BPT) and incubated one hour. After five more washes goat anti-mouse IgG2b-HRP was added (Southern Biotechnology Associates Inc., Birmingham, Ala., diluted 1:4000 in 1% BPT) and incubated one hour. After five washes plates were developed with TMB peroxidase substrate (Kirkegard and Perry, Gaithersburg, Md.). All data is presented with background binding subtracted.
Data is presented as O.D. vs. peptide concentration and as percent inhibition of GST-P31 binding vs. peptide concentration. Uncompeted GST-P31 binding was considered as 100% binding.
FIGS. 10A–10C present a compilation of data generated by competition ELISA of GST-P31, GST-PAX2, GST-SNi10 and GST-HAX42 versus various dansylated peptides on fixed C2BBe1 cells. IC50 values are in μM and include ranges determined from multiple assays. The GST/C2BBe1 column is a summary of GST protein binding to fixed C2BBe1 cells.

Data set [7] addresses T2, recombinant D2H receptor domain (human D2H transporter, amino acid residues 387-685), His-tag fusion protein (human, UniProt Q07837 387-685).
T2 construct: purified under denaturing conditions; coated on plates
T2 sequence: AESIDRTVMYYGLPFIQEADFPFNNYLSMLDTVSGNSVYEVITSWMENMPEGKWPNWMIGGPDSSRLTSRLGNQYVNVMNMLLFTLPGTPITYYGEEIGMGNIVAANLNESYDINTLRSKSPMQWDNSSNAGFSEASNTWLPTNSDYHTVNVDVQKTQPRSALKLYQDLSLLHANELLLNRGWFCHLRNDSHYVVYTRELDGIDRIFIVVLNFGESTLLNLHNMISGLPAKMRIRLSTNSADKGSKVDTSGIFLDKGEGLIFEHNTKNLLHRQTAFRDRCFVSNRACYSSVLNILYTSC
In words: phage ELISA, OD on D2H over OD on BSA. The protocol: as §1, with “6.6. Receptor ELISA Procedure 96” for “96”, “Dilute anti-M13-HRP conjugate (anti-M13 antibody linked to horse radish peroxidase (HRP)) was added to all the wells and the plate was incubated for one hour on a rotator.” left out
Binding to fixed Caco-2 cells, D2H and BSA was examined.

The target in data set [8] is T3, recombinant D2H receptor domain (human D2H transporter, amino acid residues 387-685), His-tag fusion protein (human), Q07837.
T3 chain: T2 sequence
In words: phage ELISA on coated D2H.

For data set [9], the target named is bovine serum albumin (bovine) (UniProt P02769). In words: phage ELISA on coated BSA.
The target of data set [10] is T3, recombinant D2H receptor domain (human …). In words: phage ELISA, OD on D2H over OD on BSA.
In data set [11] the target is bovine serum albumin (bovine) (UniProt P02769). In words: phage ELISA on coated BSA. The source holds these as a separate data set.
The target in data set [12] is T4, recombinant hSI receptor domain (human sucrase-isomaltase complex, amino acid residues 272-667), His-tag … (human, UniProt P14410 272-667).
T4 construct: purified under denaturing conditions on Ni-NTA agarose; coated on plates; also called hS1
In words: phage ELISA, OD on hSI over OD on BSA. The protocol: as §1, with “6.6. Receptor ELISA Procedure 96” for “96”, “Dilute anti-M13-HRP conjugate (anti-M13 antibody linked to horse radish peroxidase (HRP)) was added to all the wells and the plate was incubated for one hour on a rotator.” left out

The target in data set [13] is T4, recombinant hSI receptor domain (human …). In words: phage ELISA on coated hSI. As to the method: as §1, with “6.6. Receptor ELISA Procedure 96” for “96”, “Dilute anti-M13-HRP conjugate (anti-M13 antibody linked to horse radish peroxidase (HRP)) was added to all the wells and the plate was incubated for one hour on a rotator.” left out

Read-outs that look alike come from different tables or passages of the source. Ends that are not written are not given here.

T4 sequence (P14410 272-667 limits assumed, form in doubt, one chain of several): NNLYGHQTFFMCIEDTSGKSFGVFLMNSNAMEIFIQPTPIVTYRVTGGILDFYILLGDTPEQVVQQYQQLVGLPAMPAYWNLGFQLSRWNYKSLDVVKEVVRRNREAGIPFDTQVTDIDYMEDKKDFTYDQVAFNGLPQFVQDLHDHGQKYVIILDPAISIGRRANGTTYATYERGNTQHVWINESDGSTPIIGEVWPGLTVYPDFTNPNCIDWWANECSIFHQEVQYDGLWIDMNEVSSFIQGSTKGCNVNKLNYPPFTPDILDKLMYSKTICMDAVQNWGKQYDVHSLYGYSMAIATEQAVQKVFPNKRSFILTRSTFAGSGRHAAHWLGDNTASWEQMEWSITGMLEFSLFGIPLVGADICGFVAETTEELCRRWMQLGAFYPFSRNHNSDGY
Sequence of bovine serum albumin (bovine) (P02769 25-607 limits assumed): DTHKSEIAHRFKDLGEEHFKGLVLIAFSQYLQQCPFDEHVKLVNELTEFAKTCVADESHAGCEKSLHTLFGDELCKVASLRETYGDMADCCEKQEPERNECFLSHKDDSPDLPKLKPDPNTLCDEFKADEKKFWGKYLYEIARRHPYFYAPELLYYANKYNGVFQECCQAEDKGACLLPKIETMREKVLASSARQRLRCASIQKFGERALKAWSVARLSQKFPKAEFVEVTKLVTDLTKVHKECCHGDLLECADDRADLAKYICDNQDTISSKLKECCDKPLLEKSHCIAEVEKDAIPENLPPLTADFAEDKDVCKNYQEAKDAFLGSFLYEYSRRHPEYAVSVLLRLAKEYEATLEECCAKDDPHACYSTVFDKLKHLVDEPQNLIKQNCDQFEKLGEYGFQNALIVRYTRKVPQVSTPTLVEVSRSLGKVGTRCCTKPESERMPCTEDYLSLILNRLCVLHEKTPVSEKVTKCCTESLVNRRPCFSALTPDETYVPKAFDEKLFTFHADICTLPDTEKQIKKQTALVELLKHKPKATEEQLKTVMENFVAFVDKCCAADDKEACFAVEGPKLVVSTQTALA
Sequence of BSA (P02769 25-607): as the sequence (P02769 25-607 limits assumed) above

Molecule “RGSTGTAGGERSGVLNLHTRDNASGSGFKPWYPSNRGHK (not fully specified) [Peptide 5PAX5]” showed a BSA in data set [1] of 0.036 OD. Further, in data set [2], the “Binding to / presence in the intestine samples” value was “not found”, the “Presence in the portal circulation” value is given as “not found” and the “Presence in the systemic circulation” value is listed as “found in the systemic circulation”. Moreover, in data set [3] (phage panned on hPEPT1), the hPEPT1 is given as 0.15 OD. The PEPT1/BSA in [3] (ratio of hPEPT1 to BSA binding) stood at 4.

As for “GST-HAX42: GST-fusion protein from HAX42 (SDHALGTNLRSDNAKEPGDYNCCGNGNSTGRKVFNRRRPSAIPT; cysteine pairing not given here; also: GST fusion)”, the “Binding to fixed Caco-2 or C2BBe1 cells relative to GST control” value in [4] was “weak to moderate binding”. In addition, the “Value (binding to P100 as ratio of GST-HAX42 binding)” value in [5] was 1.00. The “Crossreactivity of GST fusion to ZElan018 (PAX2) and ZElan021 (HAX42)” value in data set [6] is “exhibited crossreactivity”.

B1: phage DCX36 (peptide)
peptide: SWSSWNWSSKTTRLGDRATREGCGPSQSDGCPYNGRLTTVKPRT
notes: M13 phage displaying this insert as N-terminal pIII fusion; whole phage in the ELISA
B1: in data set [7], the D2H/BSA is 5 ratio.

Consider SGSLNAWQPRSWVGGAFRSHANNNLNPKPTMVTRHPT (modifications not checked) [phage DCX39], for which the figures for the OD in data set [8] and in [9] were 0.299 OD 650 nm and 0.066 OD 650 nm, respectively. Besides, the D2H/BSA in data set [10] was determined as 5.

B2: phage S21 (peptide)
peptide: SPRSFWPVVSRHESFGISNYLGCGYRTCISGTMTKSSPIYPRHS
notes: as for B1
On to B2, for which the results for the OD in data set [11] and in data set [13] were 0.092 OD 650 nm and 0.845 OD 650 nm, respectively. In [12], the hSI/BSA turned out to be 9 ratio.
